Results taken from patent publication US20210277150A1.

Experiments:
[1] = molecular target: FcgammaRIIB (CD32b) (human) (UniProt P31994); assay: SPR equilibrium fit; reference WT IgG1
[2] = molecular target: FcgammaRIIIA (CD16a), F allotype (human) (UniProt P08637); assay: SPR equilibrium fit; reference WT IgG1
FcgammaRIIIA (CD16a), F allotype (human), sequence (P08637 17-208 limits assumed): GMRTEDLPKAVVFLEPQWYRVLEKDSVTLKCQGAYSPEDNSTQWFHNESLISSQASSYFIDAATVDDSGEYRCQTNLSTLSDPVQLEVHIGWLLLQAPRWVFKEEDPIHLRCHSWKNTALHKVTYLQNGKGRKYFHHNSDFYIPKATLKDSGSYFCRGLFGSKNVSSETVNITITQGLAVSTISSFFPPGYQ

FcgammaRIIB (CD32b) (human), sequence (P31994 43-217 limits assumed): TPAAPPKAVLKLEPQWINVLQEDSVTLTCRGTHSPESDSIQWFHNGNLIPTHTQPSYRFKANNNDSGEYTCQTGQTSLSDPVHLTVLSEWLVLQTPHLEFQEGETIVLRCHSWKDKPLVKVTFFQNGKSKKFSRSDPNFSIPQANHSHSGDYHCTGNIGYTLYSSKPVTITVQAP

Row | Ratio WT/Variant of kD [1] | Ratio WT/Variant of kD [2] | Substance
1 | 1.68 | 1.28 | Control 1 (K409D_K392D/D399K_D356K) (antibody)
2 | 1.13 | 1.1 | Control 2 (T366S_L368A_Y407V/T366W) (antibody)
